{
  "source": "the DeepSol protein solubility set",
  "data": [
    {"assay": "soluble on expression in E. coli; label from the status in PepcDB or PDB records", "values": [
      {"sequence": "MAHHHHHHMSGDLLEILGESRNWVLKRHRVLGKGGFGCATLYEEVHTPGSFVVVKDINMQIMKKEEEMKAVEMEVAILRRSCGHPNIVQFLDYYHDGQFMMYIVMEYCEGGDLARLEEQMQFRVFHQPERFVASILIQMLVGLYYLHVDQHTLHRDIKPQNVFLCSDGTIRIGDFGVSTVLNQYGCRAKAVCGSPFYMAPELCEEKAYDGKADLWSLGVMMYELMVLERPFNAKSIPALTRQIIHGEFSPIPRELHYSAQLVEMVESFLQTSPTARPTLRRVLRSSYVHSHLDCVPIVCLLSDHYARLFGEELLQQILQKHKDSTNTTSQVTTVVSRNSASVQEVERCKNHSDHSDSASAQPLAHQEISELEQWLEANGDVTDAFIDAQLPRNRADGQELSNSPSDIGRAVKTGRVFSDDIMDDSISSEQGKGQQAEDDVRDDFYEDDFESESSG", "soluble on expression in E. coli": "soluble"},
      {"sequence": "MSLTTATTSQTALRSRKDVPLSDCWDTKSLYASREVWQDELKKVGAEGAPFWPHLSENNFDIKQPSSLRELLTTVFSIERTLDKLYVYAHLTYDEDIANQEAAADLKSITFLLTSFVEEISWIQPALIALPQQVVNMLLASPELQEYHFYLKKLFRLAPHTGTSREEKILASSFPALEVAYKTFSSLTDSEIPFGEAVDSEGKSHPLSHALASLYMQSTDRELRKNTYQKQCQRHHGYRLSLANLLNGKIQAHLFNAKARDYDSCLEAALFQNDISTSVVTTLIDTVKQHTHLITEYFQLKQKALGLSDFHFYDVYAPLVASEASRHYSYQEAVTLICDSLSLLGNDYVETLRKGLTSDGWVDKYENTNKRSGAYSSGCYDSKPYILLNYTGTLYDVSVVAHEGGHSMHSFLSHKHQSYHEAQYPIFLAEIASTLNETLLMEFLLKQAPSKEEKIAILSRSLDTVFATLFRQTLFAAFELEMHSAAEQGLPLTEEFFSQSYEKLQRLFYGDCITFDEHSCIEWARIPHFYYNFYVYQYATGIIASLCFSERILSGEEGAQEAYLTFLRSGGSDFPIEILKKSGLDMTSSAPMLKAFSYIERKLEELASLLEGHHHHHH", "soluble on expression in E. coli": "soluble"},
      {"sequence": "MDVTDKIRPWMKECRLCPRNCGADRMAGQKGFCGTDTEIMVARAALHMWEEPCISGKEGSGAVFFSGCSLGCNFCQNRRISRGQRGKKITQEHLVELFFQLQEQGANNINLVTAGHFLPQVAVALEMAKEQGLHIPVVYNSSGYEKAKTLKMLDGLVDIYLPDFKYMDAVLAKKYSHAQDYPEIAKEALSEMVRQVGEAEFDSRGMMKKGVIVRQLLLPGHVKDAKNVLKYLYETYGDRIYISMMNQYTPMPAMKDDPQLSRKVTDREYERLIDYAISLGLKNGFMQEGETAKESFIPEFDGEGV", "soluble on expression in E. coli": "not soluble"},
      {"sequence": "MPNELSRSLSPYLLMHANDPVEWRMWSKETLRIATEENRLIFLSIGYSSCHWCHVMHEESFVDPDVAEILNNNYIPVKVDREERPDLDSYFMKVSQVINGNGGWPLNIILLPDARPVFAMTYVPKEDRNGMTGLKTILIQLSQMYLKDPDQFKDQAKAVSDAMEERESV", "soluble on expression in E. coli": "soluble"},
      {"sequence": "MFSKLAHLQRFAVLSRGVHSSVASATSVATKKTVQGPPTSDDIFEREYKYGAHNYHPLPVALERGKGIYLWDVEGRKYFDFLSSISAVNQGHCHPKIVNALKSQVDKLTLTSRAFYNNVLGEYEEYITKLFNYHKVLPMNTGVEAGETACKLARKWGYTVKGIQKYKAKIVFAAGNFWGRTLSAISSSTDPTSYDGFGPFMPGFDIIPYNDLPALERALQDPNVAAFMVEPIQGEAGVVVPDPGYLMGVRELCTRHQVLFIADEIQTGLARTGRWLAVDYENVRPDIVLLGKALSGGLYPVSAVLCDDDIMLTIKPGEHGSTYGGNPLGCRVAIAALEVLEEENLAENADKLGIILRNELMKLPSDVVTAVRGKGLLNAIVIKETKDWDAWKVCLRLRDNGLLAKPTHGDIIRFAPPLVIKEDELRESIEIINKTILSF", "soluble on expression in E. coli": "soluble"},
      {"sequence": "MSLKQKLIKKAQELRQHGFTTGEIADELNVSMDTARWLTLQKPAEEKPEAPVDFFINWKSLGGNSTRLRYVSGALSDMALSHGEAEVILGIAVSGIPFATMMADFLEDMSGVETSLAVYHPHKHRKEKDDGEGAISTNFGSVEGKKVVIVDDVITSGKTVKEVIHAVKDHGGEPIAVTVLIDKSGLSEIEEVPIESLIKVGRLEGHHHHHH", "soluble on expression in E. coli": "soluble"},
      {"sequence": "MAHHHHHHMLSIGMTAMDTEGDVTQMELSALLVHIERCERLLRHPTLLSRLPDEGETIRSRHALYVAERSRREVGGDASSSRKENDAVEGSVRQVERQISQMTLSTEEKSEKTATMPMECHASLNTDGWTVGAGGKAVESYEDVARAVGEKHRHSRIPVEMIVRQTFGGSLCEAEIQRMLCDVPPNFFLTHDETISMQRKLLSEERLEALTRLRNQRHAEL", "soluble on expression in E. coli": "not soluble"},
      {"sequence": "MGSDKIHHHHHHMRTLKELERELQPRQHLWYFEYYTGNNVGLFMKMNRVIYSGQSDIQRIDIFENPDLGVVFALDGITMTTEKDEFMYHEMLAHVPMFLHPNPKKVLIIGGGDGGTLREVLKHDSVEKAILCEVDGLVIEAARKYLKQTSCGFDDPRAEIVIANGAEYVRKFKNEFDVIIIDSTDPTAGQGGHLFTEEFYQACYDALKEDGVFSAETEDPFYDIGWFKLAYRRISKVFPITRVYLGFMTTYPSGMWSYTFASKGIDPIKDFDPEKVRKFNKELKYYNEEVHVASFALPNFVKKELGLM", "soluble on expression in E. coli": "not soluble"},
      {"sequence": "MIKEFCAENLTLLPTLDAGQISRVELCDNLAVGGTTPSYGVIKEACQLLHDKKISVATMIRPRGGDFVYNDLELKAMEEDILKAVEAGSDALVLGLLTTENQLDTDAIEQLLPATQGLPLVFHMAFDRIPTDHQHQALDQLIDYGFVRVLTHGSPEATPITDNVEQLKSLVTYANKRIEIMIGGGITAENCQSLSQLTGTAIVHGTKII", "soluble on expression in E. coli": "not soluble"},
      {"sequence": "MGEEEESLAILRRHVMNELLDTERAYVEELLCVLEGYAAEMDNPLMAHLISTGLQNKKNILFGNMEEIYHFHNRIFLRELESCIDCPELVGRCFLERMEEFQIYEKYCQNKPRSESLWRQCSDCPFFQECQKKLDHKLSLDSYLLKPVQRITKYQLLLKEMLKYSKHCEGAEDLQEALSSILGILKAVNDSMHLIAITGYDGNLGDLGKLLMQGSFSVWTDHKKGHTKVKELARFKPMQRHLFLHEKAVLFCKKREENGEGYEKAPSYSYKQSLNMTAVGITENVKGDTKKFEIWYNAREEVYIIQAPTPEIKAAWVNAIRKVLTSQLQACREASQHRALEQSHSLEHHHHHH", "soluble on expression in E. coli": "soluble"},
      {"sequence": "MTLSEEVASLQRAAHDLMYLGMDGSPIYSDDLSRRNNEVYRLTTTLYNSGVQGSTVEEQASVCLALLMGYNASFIDHGEKREHVQKILDRCWDILDTLPASLLKLRLLTACYGEVFDEPLADEARAIIASWDSVSLTTEQQEAINEFQTVVDNPYPWEYVEE", "soluble on expression in E. coli": "not soluble"},
      {"sequence": "GSMFTPKPPQDSAVIKAGYCVKQGAVMKNWKRRYFQLDENTIGYFKSELEKEPLRVIPLKEVHKVQECKQSDIMMRDNLFEIVTTSRTFYVQADSPEEMHSWIKAVSGAIVAQRGPGRSASSEHP", "soluble on expression in E. coli": "soluble"},
      {"sequence": "MLSAESLKQIDIELAKYPADQRRSAIMGALRIAQTEKGWLAPETIAFVADYIGITPAQAYEVATFYNMYDLEPVGKYKLTVCTNLPCALRGGMATGEYLKQKLGIGYGETTPDGKFTLVEGECMGACGDAPVMLVNNHSMCSFMTEEAIEKKLAELE", "soluble on expression in E. coli": "not soluble"},
      {"sequence": "IKVILITGMPGSGKSEFAKLLKERGAKVIVMSDVVRKRYSIEAKPGERLMDFAKRLREIYGDGVVARLCVEELGTSNHDLVVFDGVRSLAEVEEFKRLLGDSVYIVAVHSPPKIRYKRMIERLRSDDSKEISELIRRDREELKLGIGEVIAMADYIITNDSNYEEFKRRCEEVTDRVLK", "soluble on expression in E. coli": "soluble"},
      {"sequence": "MGSDKIHHHHHHMAENWKNCFEEELICPICLHVFVEPVQLPCKHNFCRGCIGEAWAKDSGLVRCPECNQAYNQKPGLEKNLKLTNIVEKFNALHVEKPPAALHCVFCRRGPPLPAQKVCLRCEAPCCQSHVQTHLQQPSTARGHLLVEADDVRAWSCPQHNAYRLYHCEAEQVAVCQYCCYYSGAHQGHSVCDVEIRRNEIRKMLMKQQDRLEEREQDIEDQLYKLESDKRLVEEKVNQLKEEVRLQYEKLHQLLDEDLRQTVEVLDKAQAKFCSENAAQALHLGERMQEAKKLLGSLQLLFDKTEDVSFMKNTKSVKILMDRTQTCTSSSLSPTKIGHLNSKLFLNEVAKKEKQLRKMLEGPFSTPVPFLQSVPLYPCGVSSSGAEKRKHSTAFPEASFLETSSGPVGGQYGAAGTASGEGQSGQPLGPCSSTQHLVALPGGAQPVHSSPVFPPSQYPNGSAAQQPMLPQYGGRKILVCSVDNCYCSSVANHGGHQPYPRSGHFPWTVPSQEYSHPLPPTPSVPQSLPSLAVRDWLDASQQPGHQDFYRVYGQPSTKHYVTS", "soluble on expression in E. coli": "not soluble"},
      {"sequence": "MARYEEVSVSGFEEFHRAVEQHNGKTIFAYFTGSKDAGGKSWCPDCVQAEPVVREGLKHISEGCVFIYCQVGEKPYWKDPNNDFRKNLKVTAVPTLLKYGTPQKLVESECLQANLVEMLFSED", "soluble on expression in E. coli": "soluble"},
      {"sequence": "TTEEKKEEFLATVIDSVGDGVIVIDLDGRIALMNPAAEEISGISRRQAVGHRFALVFHREAVLREMVGKTATSGMTISDHENIVIRKLKQLTPVSATTFPLMLPHGETTGTILVLRD", "soluble on expression in E. coli": "not soluble"},
      {"sequence": "MGSDKIHHHHHHMSKLLMIGTGPVAIQLANICYLKSDYEIDMVGRASTSEKSKRLYQAYKKEKQFEVKIQNEAHQHLEGKFEINRLYKDVKNVKGEYETVVMACTADAYYDTLQQLSLETLQSVKHVILISPTFGSQMIVEQFMSKFSQDIEVISFSTYLGDTRIVDKEAPNHVLTTGVKKKLYMGSTHSNSTMCQRISALAEQLKIQLEVVESPLHAETRNSSLYVHPPLFMNDFSLKAIFEGTDVPVYVYKLFPEGPITMTLIREMRLMWKEMMAILQAFRVPSVNLLQFMVKENYPVRPETLDEGDIEHFEILPDILQEYLLYVRYTAILIDPFSQPDENGHYFDFSAVPFKQVYKNEQDVVQIPRMPSEDYYRTAMIQHIGKMLGIKTPMIDQFLTRYEASCQAYKDMHQDQQLSSQFNTNLFEGDKALVTKFLEINRTLS", "soluble on expression in E. coli": "not soluble"},
      {"sequence": "MGSDKIHHHHHHMKSFQLVATAASGLEAIVGKEVARLGYDPKVENGKVYFEGDLSAIARANLWLRVADRVKIVVGVFKATTFDELFEKTKALPWEDYLPLDAQFPVAGKSVKSTLYSVPDCQAIVKKAIVNRVSEKYRRSGRLMETGALFKLEVSILKDEVTLTIDTSGAGLHKRGYRLAQGSAPIKETMAAALVLLTSWHPDRPFYDPVCGSGTIPIEAALIGQNIAPGFNREFVSETWDWMPKQVWADARQEAEDLANYDQPLNIIGGDIDARLIEIAKQNAVEAGLGDLITFRQLQVADFQTEDEYGVVVANPPYGERLEDEEAVRQLYREMGIVYKRMPTWSVYVLTSYELFEEVYGKKATKKRKLYNGYLRTDLYQYWGPRKPRPKKED", "soluble on expression in E. coli": "not soluble"},
      {"sequence": "MKSLDDLDFDNRFARLGGAFSTEVLPDPIAEPRLVVASPAALALLDLPAETSDEALFAELFGGHKLWSEAEPRAMVYSGHQFGSYNPRLGDGRGLLLGEVINQAGEHWDLHLKGAGQTPYSRMGDGRAVLRSSIREFLASEALPALGIPSSRALCVIGSSTPVWREKKESAATLLRLAPSHVRFGHFEYFYYTRQHDQLKQLAAFVLEHHFADCNAAERPYAAMFRQVVERNAELIARWQAYGFCHGVMNTDNMSILGITFDYGPYAFLDDFDANHICNHSDDAGRYSFSNQVPIAHWNLAALAQALTPLVEVDELRASLDLFLPLYQAHYLDLMRRRLGLGVAAENDHALVQELLQRMQGSAVDYSLFFRRLGEETPERALASLRDDFVDREAFDRWAEAYRRRVEEEGGDQESRRRRMHAVNPLYVLRNYLAQQAIEAAEQGDYTEVRLLHQVLSRPFEEQPGMERFTRRPPDWGRHLEISCSS", "soluble on expression in E. coli": "not soluble"}
    ]}
  ]
}
